From PMC3179936

Molecular target: recombinant leucyl aminopeptidase of T. cruzi (rLAPTc), N-terminal His-tag (Trypanosoma cruzi)
Assay: AUC + SEC; sedimentation velocity of rLAPTc at 170, 56 and 10 μM, 25 mM Tris pH 8.0, 150 mM NaCl, 10°C, 42,000 rpm; s-values combined with Stokes radii from calibrated SEC (SEC-AUC method)

- stoichiometry N (species eluting at 9 ml): 10.1 subunits
- stoichiometry N (species eluting at 10 ml): 5.6 subunits
Substance: recombinant leucyl aminopeptidase of T. cruzi (rLAPTc), N-terminal His-tag (enzyme)
